Laboratory results published in patent publication US20200376136A1.

Target: human six-transmembrane epithelial antigen of prostate 2 (STEAP2) (human) (UniProt Q8NFT2)
Experiment: FACS on HEK293 cells (low STEAP2), MFI fold above unstained, average at 100-300 nM antibody

human six-transmembrane epithelial antigen of prostate 2 (STEAP2) (human), sequence (Q8NFT2 whole entry): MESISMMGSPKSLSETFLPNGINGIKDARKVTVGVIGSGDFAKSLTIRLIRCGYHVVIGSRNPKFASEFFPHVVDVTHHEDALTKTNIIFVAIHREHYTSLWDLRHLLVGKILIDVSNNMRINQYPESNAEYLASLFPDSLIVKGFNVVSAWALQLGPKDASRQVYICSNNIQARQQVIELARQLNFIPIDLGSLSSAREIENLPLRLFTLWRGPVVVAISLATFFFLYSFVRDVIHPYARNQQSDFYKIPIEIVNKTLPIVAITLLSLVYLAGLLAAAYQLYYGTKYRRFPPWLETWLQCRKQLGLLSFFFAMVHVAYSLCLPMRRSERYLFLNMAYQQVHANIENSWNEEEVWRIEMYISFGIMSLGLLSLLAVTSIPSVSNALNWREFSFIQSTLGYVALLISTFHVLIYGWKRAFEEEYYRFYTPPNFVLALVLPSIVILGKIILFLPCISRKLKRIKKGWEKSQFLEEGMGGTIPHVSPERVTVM

Avg F.A.B (fold above background) (fold above background) | Substance
1 | hIgG1 Isotype Control-I (antibody)
1.7 | hIgG1 Isotype Control-II (antibody)
